Experimental data reported in US20030206905A1.

Molecular target: 161P2F10b (UniProt O14638)
Experiment: saturation binding ELISA; relative affinity

97A6(CD203c)
Kd: 0.28 nM
